This is an account of results in article PMC11784390, “Conformational changes in and translocation of small proteins: insights into the ejection mechanism of podophages” (Journal of Virology, 2024).

Sequences and labels used below:
B2: portal protein gp8 (natural protein, bacteriophage T7, UniProt P03728 1-536, looked up)
chain: MAEKRTGLAEDGAKSVYERLKNDRAPYETRAQNCAQYTIPSLFPKDSDNASTDYQTPWQAVGARGLNNLASKLMLALFPMQTWMRLTISEYEAKQLLSDPDGLAKVDEGLSMVERIIMNYIESNSYRVTLFEALKQLVVAGNVLLYLPEPEGSNYNPMKLYRLSSYVVQRDAFGNVLQMVTRDQIAFGALPEDIRKAVEGQGGEKKADETIDVYTHIYLDEDSGEYLRYEEVEGMEVQGSDGTYPKEACPYIPIRMVRLDGESYGRSYIEEYLGDLRSLENLQEAIVKMSMISSKVIGLVNPAGITQPRRLTKAQTGDFVTGRPEDISFLQLEKQADFTVAKAVSDAIEARLSFAFMLNSAVQRTGERVTAEEIRYVASELEDTLGGVYSILSQELQLPLVRVLLKQLQATQQIPELPKEAVEPTISTGLEAIGRGQDLDKLERCVTAWAALAPMRDDPDINLAMIKLRIANAIGIDTSGILLTEEQKQQKMAQQSMQMGMDNGAAALAQGMAAQATASPEAMAAAADSVGLQPGI
notes: portal protein gp8 of bacteriophage T7, as it stands in the virion; Native virion protein; also called dodecameric portal; source: T7 virions propagated in E. coli, purified (PEG precipitation, CsCl ultracentrifugation); copies: 12
B3: nozzle protein gp12 (natural protein, bacteriophage T7, UniProt P03747 1-794, looked up)
chain: MALISQSIKNLKGGISQQPDILRYPDQGSRQVNGWSSETEGLQKRPPLVFLNTLGDNGALGQAPYIHLINRDEHEQYYAVFTGSGIRVFDLSGNEKQVRYPNGSNYIKTANPRNDLRMVTVADYTFIVNRNVVAQKNTKSVNLPNYNPNQDGLINVRGGQYGRELIVHINGKDVAKYKIPDGSQPEHVNNTDAQWLAEELAKQMRTNLSDWTVNVGQGFIHVTAPSGQQIDSFTTKDGYADQLINPVTHYAQSFSKLPPNAPNGYMVKIVGDASKSADQYYVRYDAERKVWTETLGWNTEDQVLWETMPHALVRAADGNFDFKWLEWSPKSCGDVDTNPWPSFVGSSINDVFFFRNRLGFLSGENIILSRTAKYFNFYPASIANLSDDDPIDVAVSTNRIAILKYAVPFSEELLIWSDEAQFVLTASGTLTSKSVELNLTTQFDVQDRARPFGIGRNVYFASPRSSFTSIHRYYAVQDVSSVKNAEDITSHVPNYIPNGVFSICGSGTENFCSVLSHGDPSKIFMYKFLYLNEELRQQSWSHWDFGENVQVLACQSISSDMYVILRNEFNTFLARISFTKNAIDLQGEPYRAFMDMKIRYTIPSGTYNDDTFTTSIHIPTIYGANFGRGKITVLEPDGKITVFEQPTAGWNSDPWLRLSGNLEGRMVYIGFNINFVYEFSKFLIKQTADDGSTSTEDIGRLQLRRAWVNYENSGTFDIYVENQSSNWKYTMAGARLGSNTLRAGRLNLGTGQYRFPVVGNAKFNTVYILSDETTPLNIIGCGWEGNYLRRSSGI
notes: nozzle protein gp12 of bacteriophage T7, as it stands in the virion; Native virion protein; also called tail nozzle; source: T7 virions propagated in E. coli, purified (PEG precipitation, CsCl ultracentrifugation)

The data set “nozzle protein gp12” addresses B3. In words: cryo-EM structure; DNA-ejected T7: purified mature T7 incubated with rough LPS (250 µg/mL) at 37°C for 3 h; entire particle asymmetric 8.2 Å; portal–tail complex 3.5 Å (six-fold). As to conditions: both partners purified.
Data set [1] concerns the molecule itself. Described as above.
The data set “portal protein gp8” has as its target B2. In words: cryo-EM structure; mature T7 virions, in situ; entire particle asymmetric 6.1 Å; local reconstructions of core complex 3 Å (four-fold), portal 2.5 Å (twelve-fold), portal–tail complex 2.7 Å (six-fold). As to conditions: both partners purified.
A further data set deals with T1, core protein gp15 (bacteriophage T7, UniProt P03725 1-747).
T1 construct: core protein gp15 of bacteriophage T7, as it stands in the mature virion; Eight-fold ring in the core of mature T7; source: T7 virions propagated in E. coli, purified (PEG precipitation, CsCl ultracentrifugation)
T1 sequence (looked up): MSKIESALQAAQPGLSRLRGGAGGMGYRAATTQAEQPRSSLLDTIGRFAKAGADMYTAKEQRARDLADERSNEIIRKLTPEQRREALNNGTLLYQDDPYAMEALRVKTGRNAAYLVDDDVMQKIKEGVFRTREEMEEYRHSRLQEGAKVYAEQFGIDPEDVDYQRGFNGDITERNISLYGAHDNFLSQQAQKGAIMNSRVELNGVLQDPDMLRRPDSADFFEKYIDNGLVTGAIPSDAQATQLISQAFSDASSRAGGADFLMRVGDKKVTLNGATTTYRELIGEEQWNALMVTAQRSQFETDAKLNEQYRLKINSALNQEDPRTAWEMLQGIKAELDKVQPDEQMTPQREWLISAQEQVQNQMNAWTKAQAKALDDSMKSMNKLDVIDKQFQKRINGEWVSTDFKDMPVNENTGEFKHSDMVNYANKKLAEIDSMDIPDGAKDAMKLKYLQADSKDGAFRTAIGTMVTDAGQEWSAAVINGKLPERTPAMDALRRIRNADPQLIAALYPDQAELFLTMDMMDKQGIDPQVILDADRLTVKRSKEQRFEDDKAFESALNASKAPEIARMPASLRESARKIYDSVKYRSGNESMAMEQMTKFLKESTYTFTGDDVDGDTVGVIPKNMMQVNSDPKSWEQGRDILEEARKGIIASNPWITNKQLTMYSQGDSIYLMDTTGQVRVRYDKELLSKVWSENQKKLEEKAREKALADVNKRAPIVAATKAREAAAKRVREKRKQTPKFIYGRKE
The description is as above. As to conditions: both partners purified.

Data set [2] deals with the molecule itself. The data set is described as above.

B1: core protein gp14 (natural protein, bacteriophage T7, UniProt P03724 1-196, looked up)
chain: MCWAAAIPIAISGAQAISGQNAQAKMIAAQTAAGRRQAMEIMRQTNIQNADLSLQARSKLEEASAELTSQNMQKVQAIGSIRAAIGESMLEGSSMDRIKRVTEGQFIREANMVTENYRRDYQAIFAQQLGGTQSAASQIDEIYKSEQKQKSKLQMVLDPLAIMGSSAASAYASGAFDSKSTTKAPIVAAKGTKTGR
notes: core protein gp14 of bacteriophage T7, 196 residues as printed; modelled residues 4-86 and 101-129 in mature T7, 25-143 in DNA-ejected T7; Eight copies resolved in the mature virion, six copies in the extended channel of DNA-ejected T7; source: T7 virions propagated in E. coli, purified (PEG precipitation, CsCl ultracentrifugation)
Regarding B1, the binding result in the data set with nozzle protein gp12, with portal protein gp8 and with core protein gp15 was “binds” throughout. In data set [1], the stoichiometry N (in general, the number of molecules, sites or subunits per partner or assembly) was 6.

On to B2, for which the “stoichiometry N” value in data set [2] was determined as 12.

For B3, in data set [1], the “stoichiometry N” value worked out at 6.

B4: fiber protein gp17 (natural protein, bacteriophage T7, UniProt P03748 1-553, looked up)
chain: MANVIKTVLTYQLDGSNRDFNIPFEYLARKFVVVTLIGVDRKVLTINTDYRFATRTTISLTKAWGPADGYTTIELRRVTSTTDRLVDFTDGSILRAYDLNVAQIQTMHVAEEARDLTTDTIGVNNDGHLDARGRRIVNLANAVDDRDAVPFGQLKTMNQNSWQARNEALQFRNEAETFRNQAEGFKNESSTNATNTKQWRDETKGFRDEAKRFKNTAGQYATSAGNSASAAHQSEVNAENSATASANSAHLAEQQADRAEREADKLENYNGLAGAIDKVDGTNVYWKGNIHANGRLYMTTNGFDCGQYQQFFGGVTNRYSVMEWGDENGWLMYVQRREWTTAIGGNIQLVVNGQIITQGGAMTGQLKLQNGHVLQLESASDKAHYILSKDGNRNNWYIGRGSDNNNDCTFHSYVHGTTLTLKQDYAVVNKHFHVGQAVVATDGNIQGTKWGGKWLDAYLRDSFVAKSKAWTQVWSGSAGGGVSVTVSQDLRFRNIWIKCANNSWNFFRTGPDGIYFIASDGGWLRFQIHSNGLGFKNIADSRSVPNAIMVENE
notes: tail fiber protein gp17 of bacteriophage T7, as it stands in the virion; Six trimeric fibers on the virion; also called tail fiber; source: T7 virions propagated in E. coli, purified (PEG precipitation, CsCl ultracentrifugation)
Consider B4, for which, in data set [2], the “stoichiometry N” value was found to be 3.
